Results from the supplement of paper PMC9112550, “Optimization of the antimicrobial peptide Bac7 by deep mutational scanning” (BMC Biology, 2022).

Test system: Escherichia coli TOP10
Assay: shrunken log2 fold change of peptide-encoding DNA abundance (4.5 h post-induction vs induction); higher = less antimicrobial activity (less host growth inhibition)
Details: time post-induction: 4.5 h; library: site-saturation at positions 5, 18, 19, 20
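Further: peptides expressed intracellularly from a pBAD plasmid library in pooled LB shake-flask culture, induced with 0.3% L-arabinose, DNA abundance read by NGS, three biological replicates, DESeq2 with apeglm shrinkage.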

| Sequence | shrunken log2 fold change |
| --- | --- |
| RRIRSRPPRLPRPRPRPTEFPRP | 0.153 |
| RRIRVRPPRLPRPRPRPVAVPRP | -0.05 |
| RRIRRRPPRLPRPRPRPTDAPRP | 0.198 |
| RRIRRRPPRLPRPRPRPPNPPRP | 0.691 |
| RRIRYRPPRLPRPRPRPVQKPRP | 0.0112 |
| RRIRFRPPRLPRPRPRPGHFPRP | -0.24 |
| RRIRSRPPRLPRPRPRPGHLPRP | -0.236 |
| RRIRERPPRLPRPRPRPLGLPRP | -0.00554 |
| RRIRNRPPRLPRPRPRPASYPRP | -0.148 |
| RRIRPRPPRLPRPRPRPVHSPRP | 0.127 |
| RRIRSRPPRLPRPRPRPVEHPRP | -0.16 |
| RRIRHRPPRLPRPRPRPYFQPRP | -0.935 |
| RRIRQRPPRLPRPRPRPREYPRP | -0.0403 |
| RRIRDRPPRLPRPRPRPIGMPRP | 0.0484 |
| RRIRTRPPRLPRPRPRPYTDPRP | -0.448 |
| RRIRMRPPRLPRPRPRPPWLPRP | 0.568 |
| RRIRLRPPRLPRPRPRPMKGPRP | 0.0527 |
| RRIRKRPPRLPRPRPRPQWTPRP | 0.0894 |
| RRIRLRPPRLPRPRPRPQWSPRP | -0.0199 |
| RRIRQRPPRLPRPRPRPCDLPRP | -0.265 |
| RRIRIRPPRLPRPRPRPIQFPRP | -0.048 |
| RRIRDRPPRLPRPRPRPWNMPRP | -0.508 |
| RRIRVRPPRLPRPRPRPGMRPRP | 0.565 |
| RRIRSRPPRLPRPRPRPTGRPRP | 0.15 |
| RRIRMRPPRLPRPRPRPGYYPRP | -0.0156 |

| Sequence | shrunken log2 fold change |
| --- | --- |
| RRIRERPPRLPRPRPRPKYSPRP | -0.866 |
| RRIRGRPPRLPRPRPRPTTWPRP | 0.521 |
| RRIRERPPRLPRPRPRPIYHPRP | -0.626 |
| RRIRRRPPRLPRPRPRPGGWPRP | 0.824 |
| RRIRVRPPRLPRPRPRPAGFPRP | 0.148 |
| RRIRARPPRLPRPRPRPPSYPRP | 0.0336 |
| RRIRPRPPRLPRPRPRPEVHPRP | 0.551 |
| RRIRDRPPRLPRPRPRPQNAPRP | -0.111 |
| RRIRCRPPRLPRPRPRPNNSPRP | -0.743 |
| RRIRRRPPRLPRPRPRPPLMPRP | 0.708 |
| RRIRLRPPRLPRPRPRPAWPPRP | 0.42 |
| RRIRVRPPRLPRPRPRPQKSPRP | -0.162 |
| RRIRMRPPRLPRPRPRPLFTPRP | -0.171 |
| RRIRIRPPRLPRPRPRPQDTPRP | -0.048 |
| RRIRCRPPRLPRPRPRPPISPRP | -0.38 |
| RRIRVRPPRLPRPRPRPTHTPRP | 0.0927 |
| RRIRKRPPRLPRPRPRPQEIPRP | 0.0636 |
| RRIRGRPPRLPRPRPRPWRFPRP | 0.425 |
| RRIRYRPPRLPRPRPRPRPQPRP | 0.438 |
| RRIRCRPPRLPRPRPRPIFQPRP | -0.0452 |
| RRIRRRPPRLPRPRPRPYRCPRP | -1.3 |
| RRIRVRPPRLPRPRPRPPISPRP | 0.0369 |
| RRIRERPPRLPRPRPRPQEQPRP | -0.0202 |
| RRIRLRPPRLPRPRPRPKLFPRP | 0.306 |
| RRIRERPPRLPRPRPRPVDVPRP | 0.064 |

| Sequence | shrunken log2 fold change |
| --- | --- |
| RRIRDRPPRLPRPRPRPKVWPRP | 0.437 |
| RRIRVRPPRLPRPRPRPNLQPRP | 0.0671 |
| RRIRFRPPRLPRPRPRPTQLPRP | 0.364 |
| RRIRHRPPRLPRPRPRPPETPRP | 0.0733 |
| RRIRGRPPRLPRPRPRPQRVPRP | 0.423 |
| RRIRKRPPRLPRPRPRPDCDPRP | 0.095 |
| RRIRHRPPRLPRPRPRPNIYPRP | -0.11 |
| RRIRQRPPRLPRPRPRPTMEPRP | -0.0535 |
| RRIRWRPPRLPRPRPRPKYLPRP | -0.1 |
| RRIRVRPPRLPRPRPRPSCTPRP | -0.175 |
| RRIRMRPPRLPRPRPRPCRIPRP | -0.0476 |
| RRIRMRPPRLPRPRPRPFEDPRP | 0.2 |
| RRIRVRPPRLPRPRPRPSKDPRP | -0.563 |
| RRIRSRPPRLPRPRPRPEDPPRP | 0.931 |
| RRIRQRPPRLPRPRPRPSRLPRP | 0.101 |
| RRIRMRPPRLPRPRPRPNREPRP | 0.0182 |
| RRIRPRPPRLPRPRPRPMDRPRP | 0.247 |
| RRIRNRPPRLPRPRPRPLWSPRP | -0.0388 |
| RRIRPRPPRLPRPRPRPLPGPRP | 0.02 |
| RRIRGRPPRLPRPRPRPVFIPRP | 0.0618 |
| RRIRFRPPRLPRPRPRPMIHPRP | -0.0677 |
| RRIRERPPRLPRPRPRPACSPRP | 0.115 |
| RRIRDRPPRLPRPRPRPLGSPRP | 0.2 |
| RRIRQRPPRLPRPRPRPTMSPRP | 0.0272 |
| RRIRFRPPRLPRPRPRPGYQPRP | -0.0555 |

| Sequence | shrunken log2 fold change |
| --- | --- |
| RRIRIRPPRLPRPRPRPKRPPRP | 0.449 |
| RRIRIRPPRLPRPRPRPAQKPRP | -0.00244 |
| RRIRMRPPRLPRPRPRPQHEPRP | 0.212 |
| RRIRLRPPRLPRPRPRPENGPRP | -0.108 |
| RRIRERPPRLPRPRPRPQPAPRP | 0.171 |
| RRIRLRPPRLPRPRPRPQRVPRP | 0.0215 |
| RRIRARPPRLPRPRPRPEQFPRP | 0.218 |
| RRIRTRPPRLPRPRPRPCCVPRP | -0.363 |
| RRIRFRPPRLPRPRPRPSILPRP | -0.442 |
| RRIRRRPPRLPRPRPRPWWDPRP | -0.0777 |
| RRIRHRPPRLPRPRPRPWHAPRP | -0.0793 |
| RRIRPRPPRLPRPRPRPADPPRP | 0.558 |
| RRIRDRPPRLPRPRPRPSFAPRP | 0.263 |
| RRIRCRPPRLPRPRPRPGIFPRP | 0.0252 |
| RRIRIRPPRLPRPRPRPCNNPRP | -0.457 |
| RRIRIRPPRLPRPRPRPRLCPRP | 0.0776 |
| RRIRNRPPRLPRPRPRPYFRPRP | -0.766 |
| RRIRPRPPRLPRPRPRPKIIPRP | -0.0308 |
| RRIRYRPPRLPRPRPRPGVHPRP | -0.452 |
| RRIRIRPPRLPRPRPRPAPTPRP | 0.219 |
| RRIRQRPPRLPRPRPRPDEYPRP | 0.0131 |
| RRIRYRPPRLPRPRPRPGMVPRP | 2 |
| RRIRDRPPRLPRPRPRPFIQPRP | -0.238 |
| RRIRMRPPRLPRPRPRPATTPRP | 0.538 |
| RRIRERPPRLPRPRPRPVSRPRP | 0.23 |

| Sequence | shrunken log2 fold change |
| --- | --- |
| RRIRSRPPRLPRPRPRPEIGPRP | 0.291 |
| RRIRHRPPRLPRPRPRPEQMPRP | 0.023 |
| RRIRHRPPRLPRPRPRPGAPPRP | 0.384 |
| RRIRSRPPRLPRPRPRPMSAPRP | 0.202 |
| RRIRNRPPRLPRPRPRPAEAPRP | 0.057 |
| RRIRARPPRLPRPRPRPWPYPRP | -0.144 |
| RRIRSRPPRLPRPRPRPMWYPRP | -0.0284 |
| RRIRHRPPRLPRPRPRPRMEPRP | -0.0339 |
| RRIRKRPPRLPRPRPRPFLGPRP | 0.0561 |
| RRIRLRPPRLPRPRPRPGNFPRP | -0.122 |
| RRIRKRPPRLPRPRPRPHACPRP | 0.0691 |
| RRIRQRPPRLPRPRPRPTPWPRP | 0.619 |
| RRIRIRPPRLPRPRPRPFYCPRP | -0.633 |
| RRIRYRPPRLPRPRPRPYMTPRP | -0.271 |
| RRIRDRPPRLPRPRPRPMWHPRP | -0.008 |
| RRIRRRPPRLPRPRPRPMWKPRP | -0.0119 |
| RRIRCRPPRLPRPRPRPHTHPRP | -0.676 |
| RRIRCRPPRLPRPRPRPSEPPRP | -0.184 |
| RRIRTRPPRLPRPRPRPHPSPRP | 0.00449 |
| RRIRVRPPRLPRPRPRPPLVPRP | 0.227 |
| RRIRQRPPRLPRPRPRPLGMPRP | -0.218 |
| RRIRPRPPRLPRPRPRPARDPRP | 0.208 |
| RRIRERPPRLPRPRPRPVWSPRP | 0.158 |
| RRIRCRPPRLPRPRPRPKEGPRP | 0.201 |
| RRIRDRPPRLPRPRPRPYDYPRP | -0.097 |

| Sequence | shrunken log2 fold change |
| --- | --- |
| RRIRPRPPRLPRPRPRPCLFPRP | -0.357 |
| RRIRQRPPRLPRPRPRPPLCPRP | 0.28 |
| RRIRNRPPRLPRPRPRPTWLPRP | 0.195 |
| RRIRVRPPRLPRPRPRPQAMPRP | -0.00096 |
| RRIRHRPPRLPRPRPRPEIRPRP | 0.0924 |
| RRIRERPPRLPRPRPRPECDPRP | 0.12 |
| RRIRSRPPRLPRPRPRPTLRPRP | -0.197 |
| RRIRRRPPRLPRPRPRPQGLPRP | 0.143 |
| RRIRIRPPRLPRPRPRPHFSPRP | -0.181 |
| RRIRERPPRLPRPRPRPGEHPRP | 0.0251 |
| RRIRARPPRLPRPRPRPTKDPRP | 0.144 |
| RRIRLRPPRLPRPRPRPLFCPRP | -0.142 |
| RRIRCRPPRLPRPRPRPVIVPRP | -0.208 |
| RRIRLRPPRLPRPRPRPKPKPRP | 0.607 |
| RRIRDRPPRLPRPRPRPYLPPRP | 0.00286 |
| RRIRARPPRLPRPRPRPHRNPRP | 0.192 |
| RRIRKRPPRLPRPRPRPKNLPRP | 0.177 |
| RRIRDRPPRLPRPRPRPPGDPRP | 1.29 |
| RRIRGRPPRLPRPRPRPAWVPRP | 0.456 |
| RRIRCRPPRLPRPRPRPCGSPRP | -0.0815 |
| RRIRYRPPRLPRPRPRPAMYPRP | -1.14 |
| RRIRNRPPRLPRPRPRPDLWPRP | 0.551 |
| RRIRTRPPRLPRPRPRPRHLPRP | 0.318 |
| RRIRDRPPRLPRPRPRPQQPPRP | 0.902 |
| RRIRSRPPRLPRPRPRPEYHPRP | -0.282 |
